Measurements as given in patent publication US20160083449A1 (FRED HUTCHINSON CANCER RESEARCH CENTER, published 2016).

T1: Wilms tumor protein 1 (WT-1) peptide on HLA-A*02:01 (human)
T1 peptide: RMFPNAPYL

B1: P1 TCR (TCRP1) (TCR, V domains shown)
Valpha: AQKVTQAQTEISVVEKEDVTLDCVYETRDTTYYLFWYKQPPSGELVFLIRRNSFDEQNEISGRYSWNFQKSTSSFNFTITASQVVDSAVYFCALSEAHRDSNYQLIWGAGTKLIIKP
Vbeta: ETGVTQTPRHLVMGMTNKKSLKCEQHLGHNAMYWYKQSAKKPLELMFVYNFKEQTENNSVPSRFSPECPNSSHLFLHLHTLQPEDSALYLCASSQDEQFLYNEQFFGPGTRLTVL
B2: TCRP20, WT-1^126-134-specific TCR of T cell clone P20 (TCR, V domains shown)
V domain 1: QKEVEQNSGPLSVPEGAIASLNCTYSDRGSQSFFWYRQYSGKSPELIMSIYSNGDKEDGRFTAQLNKASQYVSLLIRDSQPSDSATYLCAVLEGQKLLFARGTMLKVDL
V domain 2: DVKVTQSSRYLVKRTGEKVFLECVQDMDHENMFWYRQDPGLGLRLIYFSYDVKMKEKGDIPEGYSVSREKKERFSLILESASTNQTSMYLCATSHQPQHFGDGTRLSILE
modifications: Engineered cysteine pair (alpha T179C, beta S185C, precursor numbering) gives an extra interchain disulfide.
notes: On the T cell clone
B3: P20 TCR (TCRP20) (TCR, V domains shown)
Valpha: B2 V domain 1
Vbeta: DVKVTQSSRYLVKRTGEKVFLECVQDMDHENMFWYRQDPGLGLRLIYFSYDVKMKEKGDIPEGYSVSREKKERFSLILESASTNQTSMYLCATSHQPQHFGDGTRLSIL

How the values were obtained:
[1] = molecular target: T1, Wilms tumor protein 1 (WT-1) peptide on …; experiment: Kd or kinetics
[2] = molecular target: T2, WT-1^126-134 peptide/MHC tetramer (…, SEQ ID NO.:16, with HLA-A2), PE-conjugated (human); experiment: flow cytometry of transduced PBMCs; share of tetramer-positive cells within the transduced population (Vβ+ cells minus the endogenous Vβ+ cells of the untransduced control); drawn table
T2 construct: Tetramer reagent used for staining of T cells; the source and the construct of the HLA-A2 monomers are not described; also called WT1 tetramers; WT-1 tetramer

Binder | binding result [1] | % transduced Vβ+ tet+ [2] [%]
B1 | recognises | 
B2 |  | 51.2
B3 | recognises | 
